The source of these data is patent US20200002699 (published 2020).

The target of data set [1] is T1, alpha-thrombin (Homo sapiens, UniProt P00734;P00734 P00734:328-363,P00734:364-622). The data set is described as follows: filter; ±2.8; Fbmax 52.9; same buffer, 22 C.
The target of data set [2] is T1, alpha-thrombin. The experiment in a line: filter; NB, little or no binding; same buffer, 22 C.
Data set [3] deals with T1, alpha-thrombin. The data set is described as follows: filter; ±1.9; Fbmax 74.5; same buffer, 22 C.
The target of data set [4] is T1, alpha-thrombin. The experiment in a line: filter; ±0.3; Fbmax 65.3; same buffer, 22 C.
In data set [5] the target is T1, alpha-thrombin. The data set is described as follows: filter; ±0.3; Fbmax 80.6; same buffer, 22 C.
Data set [6] concerns the target T1, alpha-thrombin. The experiment in a line: filter; ±0.9; Fbmax 84.5; same buffer, 22 C.
Data set [7] deals with T1, alpha-thrombin. The data set is described as follows: filter; ±0.2; Fbmax 92.3; 20 mM Tris pH 7.5, 150 mM NaCl, 2 mM MgSO4, 50 ug/mL BSA, 22 C.
In data set [8] the target is T1, alpha-thrombin. The experiment in a line: filter; truncated form; 2 mM MgSO4 buffer.
Data set [9] deals with T1, alpha-thrombin. The experiment in a line: BLI; ±0.002; kon 91.9e4 M-1 s-1, koff 4.12e-4 s-1; RNA immobilized on streptavidin sensor; 20 mM Tris pH 7.5, 150 mM NaCl, 2 mM MgSO4, 2 mg/mL BSA, 0.1% Tween-20. In general terms: In BLI a coated tip is dipped into the sample, and binding shifts an interference pattern.
The target in data set [10] is T1, alpha-thrombin. The data set is described as follows: filter; ±4.6; Fbmax 95.6; same buffer, 22 C.
Data set [11] concerns the target T1, alpha-thrombin. The data set is described as follows: filter; ±0.4; Fbmax 63.5; same buffer, 22 C.

Broadly, the Kd is the equilibrium constant for the complex coming apart.

B1: Clone 10 (ssRNA)
RNA: GGAGACGGAAGGAUAACGAGCGCUUUGACACAAGAUACAAUAUAGUAAGUGACACCAAGCCCGG
In the case of B1, in the data set with alpha-thrombin [1], the equilibrium dissociation constant (Kd) came out at 36.4 nM.

B2: Clone 5 (ssRNA)
RNA: GGAGAGGUAGGAGAACGAGCCUACCGUAAGAGAACGAGCAGACUCAAGUGACACAAAGCCCGG
Regarding B2, in the data set with alpha-thrombin [2], the binding result is “no binding”.

B3: Clone 6 (ssRNA)
RNA: GGAGAGGGAAGGAGAACGAGCCGGGACACUAAGGAACAUAAAAGUUAAGUGACACAAAGCCCGG
Turning to B3, the Kd with alpha-thrombin [3] worked out at 13.8 nM.

B4: Clone 7 (ssRNA)
RNA: GGAGAGGGAAUGAUAACGAGCCCGAAGCUCGGAGAAGCACAGAAGCAAGUGACACAAAGCCCGG
Regarding B4, the binding result with alpha-thrombin [2] is “no binding”.

B5: Clone 3 (ssRNA)
RNA: GGAGAGGGAAGGAGAACGAACCGGGACUCACAAGAUAGACAAUACUAAGUGACACAAAGCCCGG
As to B5, binding with alpha-thrombin [4] was characterised by a dissociation constant (Kd) of 2.4 nM.

B6: Clone 2 (ssRNA)
RNA: GGAGAGGUAAGUAGAACGAGCCCGGCGUCACAAGAUAGACAAAACUAAGUGACACAAAGCCCGG
Molecule B6 came in with an equilibrium dissociation constant (Kd) with alpha-thrombin [5] of 3.5 nM.

B7: Clone 4 (ssRNA)
RNA: GGAGAGGGAAGGAGAACGGCUGCGGAUAACAAGAUAGCAAAGACUAAGUGACACAAAGCCCGG
B7 showed a Kd in the data set with alpha-thrombin [6] of 10 nM.

B8: Clone 9 (ssRNA)
RNA: GGAGAGGGAAAGAGAACGAGCGGGUGUUCACAAGAUAGAGUAGACUAAGUGACACAAAGCCCGG
B8 showed a Kd with alpha-thrombin [7] of 1.4 nM.

B9: Truncated clone 9 (ssRNA)
RNA: GUGUUCACAAGAUAGAGUAGACUAAGUGACAC
B9: the Kd with alpha-thrombin [8] was determined as 2 nM; with alpha-thrombin [9], 0.448 nM.

B10: Clone 1 (ssRNA)
RNA: GGAGAGAGAAGGAGAACGAGCUGUUACUCACAAAAUAGCGAAGACUAAGUGACACAAAGCCCGG
Take B10: binding with alpha-thrombin [10] was put at a Kd of 44.7 nM.

B11: Clone 8 (ssRNA)
RNA: GGAGAGCGAAGAGAACGAGCGGGAUUGCACAAGAUAGCGUAGACUAAGUGACACAAAGCCCGG
Take B11: binding with alpha-thrombin [11] was put at a Kd of 1.6 nM. This lies in the single-digit nanomolar range.
